Test results: US20260265358A1 (BYOMASS, published 2026)
Values joined by “and” are separate entries in the source; they are usually repeats but may differ in a detail not shown here. Identical values can stand only once.

B1: Fab of anti-Activin A antibody Clone C (Fab, V domains shown)
VH: QVQLVQSGAEVKKPGASVKVSCKASGYTFPGYHMHWVRQAPGQGLEWMGVINPSSGDTNYAQKFQGRVTMTRDTSISTAYMELSRLRSDDTAVYYCARARDIAALGLGAFDYWGQGTLVTVSS
VL: EIVLTQSPGTLSLSPGERATLSCRASQSVSSSYLAWYQQKPGQAPRLLIYGASSRAGGIPDRFSGSGSGTDFTLTISRLEPEDFAVYYCQQYVAYPRTFGGGTKVEIK
notes: Fab format; only VH and VL are tied to the clone; also called Fab of Clone C
B2: Fab of anti-Activin A antibody Clone D (Fab, V domains shown)
VH: QVQLVQSGAEVKKPGASVKVSCKASGYTFFGYSMHWVRQAPGQGLEWMGVINPSSGDTNYAQKFQGRVTMTRDTSISTAYMELSRLRSDDTAVYYCARARDIAALGLGAFDYWGQGTLVTVSS
VL: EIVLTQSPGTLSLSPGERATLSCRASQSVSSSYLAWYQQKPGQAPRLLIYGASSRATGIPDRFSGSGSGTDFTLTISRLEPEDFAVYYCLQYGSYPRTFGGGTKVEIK
notes: Fab format; only VH and VL are tied to the clone; also called Fab of Clone D
B3: Fab of anti-Activin A antibody Clone E (Fab, V domains shown)
VH: QVQLVQSGAEVKKPGASVKVSCKASGYTFHGYNMHWVRQAPGQGLEWMGSINPYSGYTIYAQKFQGRVTMTRDTSISTAYMELSRLRSDDTAVYYCARARDIAAAGLGAFDYWGQGTLVTVSS
VL: EIVLTQSPGTLSLSPGERATLSCRASQSVRSSYLAWYQQKPGQAPRLLIYGASSRATGIPDRFSGSGSGTDFTLTISRLEPEDFAVYYCQQYVSYPRTFGGGTKVEIK
notes: Fab format; only VH and VL are tied to the clone; also called Clone E Fab
B4: Fab of anti-Activin A antibody Clone F (Fab, V domains shown)
VH: QVQLVQSGAEVKKPGASVKVSCKASGYTFTGYHIHWVRQVPGQGLEWMGVISAYSGDTNYAQKLQGRVTMTTDTSTSTAYMELRSLRSDDTAVYYCARARDIAALGLGAFDYWGQGTLVTVSS
VL: EIVLTQSPATLSVSPGERATLSCRASQSVSSNLAWYQQKPGQAPRLLIYGASDRATGIPARFSGSGSGTEFTLTISSLQSEDFAVYYCIQYSNYPRTFGGGTKVEIK
notes: Fab format; only VH and VL are tied to the clone; also called Clone F Fab
B5: Fab of anti-Activin A antibody Clone G (Fab, V domains shown)
VH: QVQLVQSGAEVKKPGASVKVSCKASGYTFTSYYIHWVRQAPGQGLEWMGAIYAYSGDTNYAQKLQGRVTMTTDTSTSTAYMELRSLRSDDTAVYYCARARDIAAAGLGAFDYWGQGTLVTVSS
VL: EIVLTQSPGTLSLSPGERATLSCRASQSVRSSYLAWYQQKPGQAPRLLIYGASSRATGIPDRFSGSGSGTDFTLTISRLEPEDFAVYYCQQYSNYPRTFGGGTKVEIK
notes: Fab format; only VH and VL are tied to the clone; also called Clone G Fab
B6: Fab of anti-Activin A antibody Clone H (Fab, V domains shown)
VH: QVQLVQSGAEVKKPGASVKVSCKASGYTFTGYHIHWVRQAPGQGLEWMGHISAYSGTTNYAQKLQGRVTMTTDTSTSTAYMELRSLRSDDTAVYYCARARDIAAAGLGAFDYWGQGTLVTVSS
VL: EIVLTQSPGTLSLSPGERATLSCRASQSVRSSYLAWYQQKPGQAPRLLIYGASSRATGIPDRFSGSGSGTDFTLTISRLEPEDFAVYYCQQYSNYPRTFGGGTKVEIK
notes: Fab format; only VH and VL are tied to the clone; also called Clone H Fab
B7: Fab of anti-Activin A antibody Clone I (Fab, V domains shown)
VH: QVQLVQSGAEVKKPGSSVKVSCKASGGTFSNYAISWVRQAPGQGLEWMGYIIPFFGTANYAQKFQGRVTITADESTSTAYMELSSLRSEDTAVYYCARGGSGYSTSWGSSLYWGQGTLVTVSS
VL: EIVLTQSPGTLSLSPGERATLSCRASQSVSSSYLAWYQQKPGQAPRLLIYGASYRATGIPDRFSGSGSGTDFTLTISRLEPEDFAVYYCLQSGVFPYTFGGGTKVEIK
notes: Fab format; only VH and VL are tied to the clone; also called Clone I Fab
B8: Fab of anti-Activin A antibody Clone J (Fab, V domains shown)
VH: EVQLVQSGAEVKKPGSSVKVSCKASGGTFSLYAISWVRQAPGQGLEWMGGIIPYFGTANYAQKFQGRVTITADESTSTAYMELSSLRSEDTAVYYCARGGSGYSTSWGSSLYWGQGTLVTVSS
VL: EIVLTQSPGTLSLSPGERATLSCRASQSVSSSYLAWYQQKPGQAPRLLIYGAFSRATGIPDRFSGSGSGTDFTLTISRLEPEDFAVYYCQQSGVFPYTFGGGTKVEIK
notes: Fab format; only VH and VL are tied to the clone; also called Clone J Fab
B9: Fab of anti-Activin A antibody Clone K (Fab, V domains shown)
VH: QVQLVQSGAEVKKPGSSVKVSCKASGGTSSSYAISWVRQAPGQGLEWMGYIIPAFGTANYAQKFQGRVTITADESTSTAYMELSSLRSEDTAVYYCARPVRTYPLGKYFYHWGQGTLVTVSS
VL: EIVLTQSPATLSLSPGERATLSCRASQSVSSYLAWYQQKPGQAPRLLIYDASNRATGIPARFSGSGSGTDFTLTISSLEPEDFAVYYCQQDSIFPPYTFGGGTKVEIK
notes: Fab format; only VH and VL are tied to the clone; also called Clone K Fab
B10: Fab of anti-Activin A antibody Clone Q (Fab, V domains shown)
VH: QVQLVQSGAEVKKPGSSVKVSCKASGGSFSPYTWSWVRQAPGQGLEWMGGIIPISGTANTAQKFQGRVTITADESTSTAYMELSSLRSEDTAVYYCARGGPLSGWRASYYYWGQGTLVTVSS
VL: not shown
notes: Fab format; only VH and VL are tied to the clone; also called Clone Q Fab
B11: Fab of anti-Activin A antibody Clone R (Fab, V domains shown)
VH: QVQLVQSGAEVKKPGSSVKVSCKASGGSFSPYTISWVRQAPGQGLEWMGGIILTSGTANYAQKFQGRVTITADESTSTAYMELSSLRSEDTAVYYCARGGPLSGWRASYYYWGQGTLVTVSS
VL: not shown
notes: Fab format; only VH and VL are tied to the clone; also called Clone R Fab
B12: Fab of anti-Activin A antibody Clone A (Fab, V domains shown)
VH: QVQLVQSGAEVKKPGASVKVSCKASGYTFTGYYMHWVRQAPGQGLEWMGSINPSSGGTNYAQKFQGRVTMTTDTSTSTAYMELRSLRSDDTAVYYCARARDIAAAGLGAFDYWGQGTLVTVSS
VL: EIVLTQSPGTLSLSPGERATLSCRASQSVRSSYLAWYQQKPGQAPRLLIYGASSRATGIPDRFSGSGSGTDFTLTISRLEPEDFAVYYCQQYVSYPRTFGGGTKVEIK
notes: Fab format; only VH and VL are tied to the clone; also called Clone A Fab
B13: Fab of anti-Activin A antibody Clone L (Fab, V domains shown)
VH: QVQLQESGPGLVKPSETLSLTCAVSGYSISSGYYWGWIRQPPGKGLEWIGSIYHSGSTYYNPSLKSRVTISVDTSKNQFSLKLSSVTAADTAVYYCAREAGSGYWYLSVYGMDVWGQGTTVTVSS
VL: EIVLTQSPATLSVSPGERATLSCRASQSVSSNLAWYQQKPGQAPRLLIYGASTRATGIPARFSGSGSGTEFTLTISSLQSEDFAVYYCQQSDDWPWTFGGGTKVEIK
notes: Fab format; only VH and VL are tied to the clone; also called Clone L Fab
B14: Fab of anti-Activin A antibody Clone M (Fab, V domains shown)
VH: QLQLQESGPGLVKPSETLSLTCTVSGGSISSSDYYWGWIRQPPGKGLEWIGSIYYPANTYYNPSLKSRVTISVDTSKNQFSLKLSSVTAADTAVYYCARGYWNYGMDVWGQGTTVTVSS
VL: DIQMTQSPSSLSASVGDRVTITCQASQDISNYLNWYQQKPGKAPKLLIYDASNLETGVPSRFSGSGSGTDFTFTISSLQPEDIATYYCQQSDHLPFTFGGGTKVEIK
notes: Fab format; only VH and VL are tied to the clone; also called Clone M Fab
B15: Fab of anti-Activin A antibody Clone N (Fab, V domains shown)
VH: QLQLQESGPGLVKPSETLSLTCTVSGGSISSSDYYWGWIRQPPGKGLEWIGSIYYPASTYYNPSLKSRVTISVDTSKNQFSLKLSSVTAADTAVYYCARGYWNYGMDVWGQGTTVTVSS
VL: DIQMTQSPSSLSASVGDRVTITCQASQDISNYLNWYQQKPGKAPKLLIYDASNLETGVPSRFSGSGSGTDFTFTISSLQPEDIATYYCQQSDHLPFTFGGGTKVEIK
notes: Fab format; only VH and VL are tied to the clone; also called Clone N Fab
B16: Fab of anti-Activin A antibody Clone O (Fab, V domains shown)
VH: QVQLVQSGAEVKKPGSSVKVSCKASGGTFSNYDINWVRQAPGQGLEWMGGIIPVFGTAAYAQKFQGRVTITADESTSTAYMELSSLRSEDTAVYYCAREARDGYRYAFQHWGQGTLVTVSS
VL: EIVMTQSPATLSVSPGERATLSCRASQSVSSNLAWYQQKPGQAPRLLIYGASTRATGIPARFSGSGSGTEFTLTISSLQSEDFAVYYCQQYNNWPITFGGGTKVEIK
notes: Fab format; only VH and VL are tied to the clone; also called Clone O Fab
B17: Fab of anti-Activin A antibody Clone P (Fab, V domains shown)
VH: QVQLVQSGAEVKKPGSSVKVSCKASGGTFDDYAISWVRQAPGQGLEWMGGIIPRFGIANYAQKFQGRVTITADESTSTAYMELSSLRSEDTAVYYCARPPSSGSDWGQGTLVTVSS
VL: DIQMTQSPSSVSASVGDRVTITCRASQGIDSWLAWYQQKPGKAPKLLIYAASSLQSGVPSRFSGSGSGTDFTLTISSLQPEDFATYYCQQVHSFPITFGGGTKVEIK
notes: Fab format; only VH and VL are tied to the clone; also called Clone P Fab

Columns and labels:
[1] = target: T1, Human Activin A Fc (human, UniProt P03970 309-424 (pig entry)); experiment: Octet BLI, Fab, monovalent
T1 construct: also called human Activin A-Fc fusion; human Activin A-Fc antigen; not shown: Fc part
T1 sequence: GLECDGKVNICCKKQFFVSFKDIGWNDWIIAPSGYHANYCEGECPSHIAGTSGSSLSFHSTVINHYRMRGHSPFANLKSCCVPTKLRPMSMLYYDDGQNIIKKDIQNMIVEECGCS

[2] = target: T2, biotinylated Human Activin A (human, UniProt P03970 309-424 (pig entry), biotinylated (EZ-Link Sulfo-NHS-Biotinylation Kit)); experiment: SPR (Biacore 8K), antigen captured, Fab analyte
T2 sequence: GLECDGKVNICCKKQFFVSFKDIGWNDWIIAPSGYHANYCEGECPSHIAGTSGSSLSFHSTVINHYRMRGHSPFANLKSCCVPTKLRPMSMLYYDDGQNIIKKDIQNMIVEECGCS
Procedure: Kinetic analysis was conducted at 25° C. in HBS-EP+ running buffer (10 mM HEPES pH 7.4, 150 mM NaCl, 3 mM EDTA, 0.05% Surfactant P20) using a Biacore 8K optical biosensor (Cytiva, Marlborough, MA). The sample compartment was maintained at 10° C. for the duration of the experiment. The Biacore 8K can analyze up to 8 separate interactions in a single cycle.
Each experiment cycle began with an injection (300 s at 2 μL/min) overflow cells 1 and 2 of a 1:100 solution of biotin CAPture reagent (Cytiva) in running buffer. This was followed by an injection (45 s at 10.0 μL/min) of biotinylated human ACTIVIN A (5 nM) overflow cell 2. Upon capture of ACTIVIN A to the sensor surface, a single concentration of Fab ranging from 0.111-81.0 nM was injected (300 s at 30 μL/min) overflow cells 1 and 2. The dissociation of the antibodies were monitored for 3420 s. Finally, an injection (120 s at 10 μL/min) of regeneration solution (6 M Guanidine-HCl in 0.25 M NaOH) overflow cells 1 and 2 prepared the sensor surface for another cycle. Several blank buffer samples were injected (300 s at 30 μL/min) overflow cells 1 and 2 throughout the duration of the experiment and used for reference surface subtraction—each were monitored for the same amount of dissociation time (3420 s) and regenerated under the same conditions as those for the Fab sample injections.
The anti-Activin antibodies identified in Example 1 were characterized. First, binding kinetics of the anti-Activin antibodies was assessed with a Surface Plasmon Resonance assay (Biacore).

Row | Binder | Kd [1] [pM] | Kd [2] | koff [2] | kon [2]
1 | B1 | 229 | 33.4 pM and 17.9 pM | 4.52e-05 s⁻¹ and 2.74e-05 s⁻¹ | –
2 | B2 | 538 | 9.86 pM and 8.13 pM | 3.02e-05 s⁻¹ and 2.16e-05 s⁻¹ | 3.06e+06 M⁻¹ s⁻¹ and 2.66e+06 M⁻¹ s⁻¹
3 | B3 | 790 | 77.9 pM | 0.000174 s⁻¹ | 2.23e+06 M⁻¹ s⁻¹
4 | B4 | 419 | 43.1 pM | 7.26e-05 s⁻¹ | 1.68e+06 M⁻¹ s⁻¹
5 | B5 | 1090 | 84.9 pM | 0.000124 s⁻¹ | 1.46e+06 M⁻¹ s⁻¹
6 | B6 | 1860 | 960 pM | 0.000371 s⁻¹ | 386000 M⁻¹ s⁻¹
7 | B7 | 857 | 61.6 pM | 7.38e-05 s⁻¹ | 1.2e+06 M⁻¹ s⁻¹
8 | B8 | – | 118 pM | – | –
9 | B9 | 925 | 36.7 pM | 0.000119 s⁻¹ | 3.25e+06 M⁻¹ s⁻¹
10 | B10 | 1750 | 240 pM | 0.000175 s⁻¹ | 728000 M⁻¹ s⁻¹
11 | B11 | 2900 | – | – | –
12 | B12 | 2020 | – | – | –
13 | B13 | 4140 | – | – | –
14 | B14 | 4530 | – | – | –
15 | B15 | 4850 | – | – | –
16 | B16 | 1920 | – | – | –
17 | B17 | 1530 | – | – | –
